Target: CD40 on APCs (CD2-depleted human PBMC) (human) (UniProt P25942)
Experiment: cell-based or functional assay

Sequence of UniProt P25942 (P25942 21-277): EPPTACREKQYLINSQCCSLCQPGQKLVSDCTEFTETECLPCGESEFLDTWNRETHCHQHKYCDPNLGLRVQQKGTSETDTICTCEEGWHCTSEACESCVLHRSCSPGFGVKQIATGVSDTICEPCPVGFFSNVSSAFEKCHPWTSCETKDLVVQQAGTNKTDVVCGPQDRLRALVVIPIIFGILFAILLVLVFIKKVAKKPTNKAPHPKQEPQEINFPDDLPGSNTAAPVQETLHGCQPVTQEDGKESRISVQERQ

Row | Substance | % Positive APCs for CD40 after 48 h with CD40 mAb on CD32+ L cells plus IL-4 (APC alone: 99(231)) [%] | % Positive APCs for CD54 after 48 h with CD40 mAb on CD32+ L cells plus IL-4 (APC alone: 65(283)) [%] | % Positive APCs for CD80 after 48 h with CD40 mAb on CD32+ L cells plus IL-4 (APC alone: 16(78)) [%] | % Positive APCs for CD86 after 48 h with CD40 mAb on CD32+ L cells plus IL-4 (APC alone: 30(310)) [%] | MFI of CD40 on APCs after 48 h with CD40 mAb on CD32+ L cells plus IL-4 (APC alone: 99(231)) (scale: MFI) | MFI of CD54 on APCs after 48 h with CD40 mAb on CD32+ L cells plus IL-4 (APC alone: 65(283)) (scale: MFI) | MFI of CD58 on APCs after 48 h with CD40 mAb on CD32+ L cells plus IL-4 (APC alone: 40(315)) (scale: MFI) | MFI of CD80 on APCs after 48 h with CD40 mAb on CD32+ L cells plus IL-4 (APC alone: 16(78)) (scale: MFI) | MFI of CD86 on APCs after 48 h with CD40 mAb on CD32+ L cells plus IL-4 (APC alone: 30(310)) (scale: MFI) | % Positive APCs for CD40 after 24 h with D1.1 cells (APC alone: 99(203)) [%] | % Positive APCs for CD54 after 24 h with D1.1 cells (APC alone: 60(350)) [%] | % Positive APCs for CD58 after 24 h with D1.1 cells (APC alone: 42(374)) [%] | % Positive APCs for CD80 after 24 h with D1.1 cells (APC alone: 17(90)) [%] | % Positive APCs for CD86 after 24 h with D1.1 cells (APC alone: 35(318)) [%] | MFI of CD40 on APCs after 24 h with D1.1 cells (APC alone: 99(203)) (scale: MFI) | MFI of CD54 on APCs after 24 h with D1.1 cells (APC alone: 60(350)) (scale: MFI) | MFI of CD58 on APCs after 24 h with D1.1 cells (APC alone: 42(374)) (scale: MFI) | MFI of CD80 on APCs after 24 h with D1.1 cells (APC alone: 17(90)) (scale: MFI) | MFI of CD86 on APCs after 24 h with D1.1 cells (APC alone: 35(318)) (scale: MFI)
1 | mAb CD40 G28-5 (antibody) | 99 | 97 | 31 | 63 | 430 | 443 | 458 | 109 | 464 |  |  |  |  |  |  |  |  |  | 
2 | CD40L constitutively expressed on the D1.1 Jurkat T cell line (from UniProt P29965 1-261) (ligand) |  |  |  |  |  |  |  |  |  | 99 | 85 | 70 | 41 | 49 | 312 | 358 | 380 | 141 | 327

Reference: patent US6759239
